Data: US20240409663A1 (CONCEPT TO MEDICINE BIOTECH, published 2024)

Tests used:
human GPC3 on cells [1] = molecular target: T1, human GPC3 on cells (human, UniProt P51654 25-554); test: FACS, Hep3B cells
T1 construct: whole, on cells; over-expressed on CHOK1 cells or endogenous on HEPG2, Hep3B and Huh-7 hepatocellular carcinoma cells; the cell line is named under assay; also called GPC3-CHOK1 cells; human GPC3 over-expressed CHOK1 cells
Method: (§1) To evaluate the antigen binding property, the humanized antibodies were analyzed for their binding to human GPC3 over-expressed CHOK1 cells, HEPG2 cells, Hep3B cells and Huh-7 cells by FACS. Briefly, GPC3-CHOK1 cells, HEPG2 cells, Hep3B cells and Huh-7 cells were firstly incubated with Fc blocking reagent at 4° C. for 15 mins. Cells were washed by FACS buffer and divided to each well with 4-fold serially diluted humanized antibodies starting at 10 μg/mL at 4° C. for 60 mins. Cells were washed by FACS buffer and fixed with 2% PFA at RT for 15 mins. […] The 16 humanized antibodies were separated into two plates.

human GPC3 on cells [2] = molecular target: T1, human GPC3 on cells; test: FACS, Huh-7 cells
Method: as §1

human GPC3 on cells [3] = molecular target: T1, human GPC3 on cells; test: FACS, HEPG2 cells
Method: as §1

[4] = molecular target: T2, human GPC3-his tag protein (human, UniProt P51654 25-559, limits assumed); test: SPR Biacore 8K, mAb captured, affinity ranking
T2 construct: recombinant soluble antigen used as analyte in all Biacore runs; also called recombinant GPC3 protein; rhGPC3-His; not shown: His tag
Method: To evaluate antigen binding activity, the chimeric antibody's affinity was measured by Biacore 8K. A serial dilution of human GPC3-his tag protein was injected over captured chimeric antibody 52H5D3B8-6 #-VH+VL for 3 mins at a flow rate of 30 μl/min. The antigen was allowed to dissociate for 720 s. Among the multi detection doses, two concentrations with most close affinity to the chimeric antibody's affinity were chosen for the 16 humanized antibodies' affinity detection.

human GPC3 on cells [5] = molecular target: T1, human GPC3 on cells; test: FACS, GPC3-CHOK1 cells
Method: as §1

human GPC3 on cells [6] = molecular target: T1, human GPC3 on cells; test: FACS, Huh-7 cells; remark: listed apart in the source
Method: as §1, with “CHOK1” for “CHOK1 cells, HEPG2 cells, Hep3B”, “GPC3-CHOK1” for “GPC3-CHOK1 cells, HEPG2 cells, Hep3B”, “As different plates might affect the EC50 of 52H5D3B8-VH+VL, the 12” for “The 16”

human GPC3 on cells [7] = molecular target: T1, human GPC3 on cells; test: FACS, GPC3-CHOK1 cells; remark: listed apart in the source
Method: as §1, with “CHOK1” for “CHOK1 cells, HEPG2 cells, Hep3B”, “GPC3-CHOK1” for “GPC3-CHOK1 cells, HEPG2 cells, Hep3B”, “As different plates might affect the EC50 of 52H5D3B8-VH+VL, the 12” for “The 16”

[8] = molecular target: T2, human GPC3-his tag protein; test: SPR Biacore 8K, mAb captured, affinity ranking; remark: listed apart in the source
Method: To evaluate antigen binding activity, the chimeric antibody's affinity was measured by Biacore 8K. Two concentrations with most close affinity to the chimeric antibody's affinity were chosen for the 12 humanized antibodies' affinity detection. Human GPC3-his tag protein was injected over captured antibody for 3 mins at a flow rate of 30 μl/min. The antigen was allowed to dissociate for 720 s.

[9] = molecular target: T2, human GPC3-his tag protein; test: SPR Biacore, mAb captured on CM5, GPC3-his dilution series (full kinetics)
Method: The binding of the humanized antibodies to recombinant GPC3 protein (human GPC3-his tag) was tested by Biacore using a capture method. 52H5D3B8-6 #-V+VL, 52H5D3B8-6 #-VH1+VL1, 52H5D3B8-6 #-VH1+VL3, 52H5D3B8-6 #-V1+VL4, 52H5D3B8-6 #-VH2+VL4, 52H5D3B8-6 #-VH3+VL1, 52H5D3B8-6 #-VH3+VL3 mAbs were captured using CM5 sensor chip. A serial dilution of human GPC3-his tag protein was injected over captured antibody for 2 mins at a flow rate of […]. The antigen was allowed to dissociate for 360 s. All the experiments were carried out on a Biacore T200.

| Binder | EC50 (human GPC3 on cells [1]) | EC50 (human GPC3 on cells [2]) | EC50 (human GPC3 on cells [3]) | Kd [4] | koff [4] | kon [4] | EC50 (human GPC3 on cells [5]) | EC50 (human GPC3 on cells [6]) | EC50 (human GPC3 on cells [7]) | Kd [8] | koff [8] | kon [8] | Kd [9] | koff [9] | kon [9] |
| --- | --- | --- | --- | --- | --- | --- | --- | --- | --- | --- | --- | --- | --- | --- | --- |
| 52H5D3B8-6#-VH2+VL1 (antibody, V domains shown, humanized) VH: QVQLVQSGAEVKKPGASVKVSCKASGYTFTDYEMHWVRQAPGQGLEWIGAIHPGSGGTAYNQKFKGRVTMTADTSTSTVYMELSSLRSEDTAVYYCTRYYSYAYWGQGTLVTVSS VL: DIVMTQTPLSLSVTPGQPASISCRSSQSLVHSNGNTYLQWYLQKPGQSPQLLIYKVSNRFSGVPDRFSGSGSGTDFTLKISRVEAEDVGVYYCFQSIHVPYTFGGGTKLEIK | 0.0824 µg/mL | 0.0427 µg/mL | 0.0479 µg/mL | 1.15 nM | 0.000742 s⁻¹ | 646000 M⁻¹ s⁻¹ | 0.0384 µg/mL |  |  |  |  |  |  |  |  |
| 52H5D3B8-6#-VH2+VL2 (antibody, V domains shown, humanized) VH: QVQLVQSGAEVKKPGASVKVSCKASGYTFTDYEMHWVRQAPGQGLEWIGAIHPGSGGTAYNQKFKGRVTMTADTSTSTVYMELSSLRSEDTAVYYCTRYYSYAYWGQGTLVTVSS VL: DIVMTQTPLSLSVTPGQPASISCRSSQSLVHSNGNTYLQWYLQKPGQSPQLLIYKVSNRFSGVPDRFSGSGSGTDFTLKISRVEAEDVGVYFCFQSIHVPYTFGGGTKLEIK | 0.0846 µg/mL | 0.0434 µg/mL | 0.0481 µg/mL | 1.15 nM | 0.000749 s⁻¹ | 651000 M⁻¹ s⁻¹ | 0.043 µg/mL |  |  |  |  |  |  |  |  |
| 52H5D3B8-6#-VH3+VL1 (antibody, V domains shown, humanized) VH: QVQLVQSGAEVKKPGASVKVSCKALGYTFTDYEMHWVKQAPGQGLEWIGAIHPGSGGTAYNQKFKGRVTLTADTSTSTVYMELSSLRSEDTAVYYCTRYYSYAYWGQGTLVTVSS VL: DIVMTQTPLSLSVTPGQPASISCRSSQSLVHSNGNTYLQWYLQKPGQSPQLLIYKVSNRFSGVPDRFSGSGSGTDFTLKISRVEAEDVGVYYCFQSIHVPYTFGGGTKLEIK | 0.0738 µg/mL | 0.0413 µg/mL | 0.0471 µg/mL | 0.838 nM | 0.000578 s⁻¹ | 689000 M⁻¹ s⁻¹ | 0.0373 µg/mL |  |  |  |  |  | 1 nM | 0.000579 s⁻¹ | 579000 M⁻¹ s⁻¹ |
| 52H5D3B8-6#-VH3+VL2 (antibody, V domains shown, humanized) VH: QVQLVQSGAEVKKPGASVKVSCKALGYTFTDYEMHWVKQAPGQGLEWIGAIHPGSGGTAYNQKFKGRVTLTADTSTSTVYMELSSLRSEDTAVYYCTRYYSYAYWGQGTLVTVSS VL: DIVMTQTPLSLSVTPGQPASISCRSSQSLVHSNGNTYLQWYLQKPGQSPQLLIYKVSNRFSGVPDRFSGSGSGTDFTLKISRVEAEDVGVYFCFQSIHVPYTFGGGTKLEIK | 0.0786 µg/mL | 0.0411 µg/mL | 0.0444 µg/mL | 0.883 nM | 0.000587 s⁻¹ | 664000 M⁻¹ s⁻¹ | 0.0429 µg/mL |  |  |  |  |  |  |  |  |
| 52H5D3B8-6#-VH2+VL4 (antibody, V domains shown, humanized) VH: QVQLVQSGAEVKKPGASVKVSCKASGYTFTDYEMHWVRQAPGQGLEWIGAIHPGSGGTAYNQKFKGRVTMTADTSTSTVYMELSSLRSEDTAVYYCTRYYSYAYWGQGTLVTVSS VL: DIVMTQTPLSLSVTPGQPASISCRSSQSLVHSNGNTYLQWYLQKPGQSPKLLIYKVSNRFSGVPDRFSGSGSGTDFTLKISRVEAEDVGVYFCFQSIHVPYTFGGGTKLEIK | 0.0632 µg/mL | 0.0381 µg/mL | 0.0438 µg/mL | 0.994 nM | 0.000645 s⁻¹ | 648000 M⁻¹ s⁻¹ | 0.041 µg/mL |  |  |  |  |  | 1.12 nM | 0.000669 s⁻¹ | 599000 M⁻¹ s⁻¹ |

Results, then the binder that gave them:

| EC50 (human GPC3 on cells [1]) | EC50 (human GPC3 on cells [2]) | EC50 (human GPC3 on cells [3]) | Kd [4] | koff [4] | kon [4] | EC50 (human GPC3 on cells [5]) | EC50 (human GPC3 on cells [6]) | EC50 (human GPC3 on cells [7]) | Kd [8] | koff [8] | kon [8] | Kd [9] | koff [9] | kon [9] | Binder |
| --- | --- | --- | --- | --- | --- | --- | --- | --- | --- | --- | --- | --- | --- | --- | --- |
|  |  |  |  |  |  |  | 0.0243 µg/mL | 0.0404 µg/mL | 6.33 nM | 0.00161 s⁻¹ | 255000 M⁻¹ s⁻¹ |  |  |  | Hu 52H5D3B8-1 (antibody, V domains shown, humanized 52H5D3B8; also called 52H5D3B8 VH0 + VL0) VH: EVQLVQSGAEVKKPGASVKVSCKASGYTFTDYEMHWVRQAPGQGLEWMGAIHPGSGGTAYNQKFKGRVTMTRDTSISTAYMELSRLRSDDTAVYYCARFYSYAYWGQGTLVTVSS VL: DVVMTQTPLSLSVTPGQPASISCRSSQSLVHSNGNTYLQWYLQKPGQSPQLLIYKVSNRFSGVPDRFSGSGSGTDFTLKISRVEAEDVGVYYCSQSIHVPYTFGGGTKVEIK |
| 0.0615 µg/mL | 0.0326 µg/mL | 0.043 µg/mL | 2 nM | 0.00113 s⁻¹ | 564000 M⁻¹ s⁻¹ | 0.0388 µg/mL |  |  |  |  |  |  |  |  | 52H5D3B8-6#-VH1+VL2 (antibody, V domains shown, humanized) VH: QVQLVQSGAEVKKPGASVKVSCKASGYTFTDYEMHWVRQAPGQGLEWMGAIHPGSGGTAYNQKFKGRVTMTRDTSTSTVYMELSSLRSEDTAVYYCARYYSYAYWGQGTLVTVSS VL: DIVMTQTPLSLSVTPGQPASISCRSSQSLVHSNGNTYLQWYLQKPGQSPQLLIYKVSNRFSGVPDRFSGSGSGTDFTLKISRVEAEDVGVYFCFQSIHVPYTFGGGTKLEIK |
| 0.0529 µg/mL | 0.0265 µg/mL | 0.0387 µg/mL | 1.74 nM | 0.000975 s⁻¹ | 561000 M⁻¹ s⁻¹ | 0.0341 µg/mL |  |  |  |  |  | 1.76 nM | 0.000872 s⁻¹ | 494000 M⁻¹ s⁻¹ | 52H5D3B8-6#-VH1+VL3 (antibody, V domains shown, humanized) VH: QVQLVQSGAEVKKPGASVKVSCKASGYTFTDYEMHWVRQAPGQGLEWMGAIHPGSGGTAYNQKFKGRVTMTRDTSTSTVYMELSSLRSEDTAVYYCARYYSYAYWGQGTLVTVSS VL: DIVMTQTPLSLSVTPGQPASISCRSSQSLVHSNGNTYLQWYLQKPGQSPKLLIYKVSNRFSGVPDRFSGSGSGTDFTLKISRVEAEDVGVYYCFQSIHVPYTFGGGTKLEIK |
|  |  |  |  |  |  |  | 0.0213 µg/mL | 0.0387 µg/mL | 4.34 nM | 0.00176 s⁻¹ | 405000 M⁻¹ s⁻¹ |  |  |  | Hu 52H5D3B8-3 (antibody, V domains shown, humanized 52H5D3B8; also called 52H5D3B8 VH1 + VL0) VH: EVQLVQSGAEVKKPGASVKVSCKASGYTFTDYEMHWVRQAPGQGLEWMGAIHPGSGGTAYNQKFKGRVTMTRDTSISTAYMELSRLRSDDTAVYYCTRFYSYAYWGQGTLVTVSS VL: DVVMTQTPLSLSVTPGQPASISCRSSQSLVHSNGNTYLQWYLQKPGQSPQLLIYKVSNRFSGVPDRFSGSGSGTDFTLKISRVEAEDVGVYYCSQSIHVPYTFGGGTKVEIK |
| 0.0545 µg/mL | 0.0268 µg/mL | 0.0391 µg/mL | 1.74 nM | 0.000947 s⁻¹ | 546000 M⁻¹ s⁻¹ | 0.0308 µg/mL |  |  |  |  |  | 1.85 nM | 0.000984 s⁻¹ | 532000 M⁻¹ s⁻¹ | 52H5D3B8-6#-VH1+VL4 (antibody, V domains shown, humanized) VH: QVQLVQSGAEVKKPGASVKVSCKASGYTFTDYEMHWVRQAPGQGLEWMGAIHPGSGGTAYNQKFKGRVTMTRDTSTSTVYMELSSLRSEDTAVYYCARYYSYAYWGQGTLVTVSS VL: DIVMTQTPLSLSVTPGQPASISCRSSQSLVHSNGNTYLQWYLQKPGQSPKLLIYKVSNRFSGVPDRFSGSGSGTDFTLKISRVEAEDVGVYFCFQSIHVPYTFGGGTKLEIK |
